The source of these data is patent US20070150973A1.

In experiment [1] the target is FKBP×3-p65 fusion protein (human) (UniProt P62942). Briefly: cell-based or functional assay.
The target of experiment [2] is FKBP×3-VP16 fusion protein (human; Herpes Simplex Virus) (UniProt P62942). Briefly: cell-based or functional assay.

On to “ZFHD1-FKBP×3 fusion protein (from UniProt P08046 333-390; P14859 378-439; P62942 2-108; P62942 2-108; P62942 2-108)”, for which the FK1012 concentration at peak SEAP activation in experiment [1] and in experiment [2] was 100 nM in each case.
